Results as given in paper PMC10115415.

What was measured:
[1] = target: MLL1 third plant homeodomain (PHD3) (UniProt Q03164); assay: ITC; conditions not given (table S1, fig. S2)
[2] = target: Cyp33 RRM∆α/MLL1 PHD3 complex (UniProt Q9UNP9); assay: ITC; conditions not given (table S1, fig. S2)
[3] = target: Histone H3 H3K4me3 (Homo sapiens) (UniProt P68431); details: cited from earlier work
H3(1-13)K4me3 peptide = assay: ITC; details: NMR titrations: 20 mM KHPO4 pH 7, 40 mM KCl, 1 mM DTT, 289.15 K as printed (table S2 says 298.15 K for Kd); structures of complexes: 40 mM KCl, 20 mM KH2PO4 pH …

Sequence of MLL1 third plant homeodomain (PHD3) (Q03164 1564-1627): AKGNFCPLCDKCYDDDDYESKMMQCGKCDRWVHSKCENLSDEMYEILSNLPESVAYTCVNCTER
Sequence of MLL1 PHD3-BRD (Q03164 1566-1784): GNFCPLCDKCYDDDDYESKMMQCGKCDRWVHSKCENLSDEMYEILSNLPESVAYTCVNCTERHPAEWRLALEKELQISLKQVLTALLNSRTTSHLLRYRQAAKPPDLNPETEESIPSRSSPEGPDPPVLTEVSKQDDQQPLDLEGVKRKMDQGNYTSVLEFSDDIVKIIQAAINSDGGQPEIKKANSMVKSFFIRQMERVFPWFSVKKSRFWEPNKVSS

Kd [1]	Substance	other results
7 µM	Cyp33 K83A mutant	–
7 µM	Cyp33 KRK83-88A triple mutant	–
7 µM	Cyp33 RK86-88A double mutant	–
4.6 µM	Cyp33 RNA recognition motif (RRM) with the C-terminal extension (α3 helix) (from UniProt Q9UNP9 1-114) (domain or fragment)	–
7 µM	Cyp33 W101A, L102A, F105A triple mutant (Cyp33-WLF)	–
–	Histone H3 lysine N6-trimethylated peptide (H3K4me3) (from UniProt P68431 2-14)	Kd [2]: 24 µM
–	MLL1 PHD3-BRD (from UniProt Q03164)	Kd [3]: 4 µM
–	UAAUGUUAAUGUUAAUGUUAAUGU [4x UAAUGU repeat RNA]	Kd (H3(1-13)K4me3 peptide): 30 µM
